Source: PMC2363969, “gp100/pmel17 and tyrosinase encode multiple epitopes recognized by Th1-type CD4+T cells” (British Journal of Cancer, 2001)

Key:
HLA-DRB1*0401 (human) = assay: radioligand binding
HLA-DRB1*0404 (human) = assay: radioligand binding

- IC50 (HLA-DRB1*0401 (human)): 17 nM
- IC50 (HLA-DRB1*0404 (human)): 31 nM
Substance: tyrosinase 365-381D (peptide)
